Experimental data taken from patent US20210238310A1.

Columns and labels:
[1] = target: FcγRIIIa, on Jurkat effector cells (UniProt P08637); assay: cell-based or functional assay
[2] = target: human FcγRIIa-H variant (Histidine at amino acid 131), on Jurkat effector cells (human) (UniProt P12318); assay: cell-based or functional assay
Chain of human FcγRIIa-H variant (Histidine at amino acid 131), on Jurkat effector cells (human) (P12318 34-317, change not shown): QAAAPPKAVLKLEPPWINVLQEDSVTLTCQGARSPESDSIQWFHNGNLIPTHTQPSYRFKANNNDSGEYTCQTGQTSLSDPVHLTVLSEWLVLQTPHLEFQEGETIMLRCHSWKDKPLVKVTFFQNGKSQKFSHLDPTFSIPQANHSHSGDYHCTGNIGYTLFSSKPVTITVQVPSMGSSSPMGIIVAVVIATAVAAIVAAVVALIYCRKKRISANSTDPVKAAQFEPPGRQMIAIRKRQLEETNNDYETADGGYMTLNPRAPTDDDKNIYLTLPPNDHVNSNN

Chain of FcγRIIIa, on Jurkat effector cells (P08637 17-254 limits assumed): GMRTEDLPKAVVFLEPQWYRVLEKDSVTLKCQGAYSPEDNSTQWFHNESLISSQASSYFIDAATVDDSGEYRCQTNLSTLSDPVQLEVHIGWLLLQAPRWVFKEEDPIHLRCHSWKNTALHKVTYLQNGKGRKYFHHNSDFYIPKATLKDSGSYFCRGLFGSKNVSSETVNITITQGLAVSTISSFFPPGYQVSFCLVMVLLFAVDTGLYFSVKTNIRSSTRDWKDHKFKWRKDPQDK

EC50 (nM), Mean; FcγRIIIa signaling in an ADCC reporter assay (luciferase, HEK-PD-L1 target cells) [1]	EC50 (nM), Mean; FcγRIIa signaling in an ADCP reporter assay (luciferase, Raji target cells) [2]	EC50 (nM), Mean; FcγRIIIa signaling in an ADCC reporter assay (luciferase, Raji target cells) [1]	Substance
0.049 nM	–	–	avelumab monoclonal antibody, fucosylated
–	7.1 nM	0.08 nM	obinutuzumab monoclonal antibody, fucosylated
